Measurements published in patent publication US20200270325A1 (Merck Sharp & Dohme, published 2020).
Numbered stars: 1 amine (or outer) side, 2 acyl side, 3 side chain; on linkers, the order of the positions; unused ones are H or OH. Square brackets hold non-standard residues; d marks the D form. Side chains are listed from the residue outwards. Ends that are not written are not given here. * marks the point of attachment. Phe(4-CH2NH2) = NCc1ccc(C[C@H](N)C(=O)O)cc1; C18 diacid = O=C(O)CCCCCCCCCCCCCCCCC(=O)*; C16 diacid = O=C(O)CCCCCCCCCCCCCCC(=O)*; γGlu = O=C(O)[C@H](CCC(=O)[*:2])N[*:1]; Met(O2) = CS(=O)(=O)CC[C@H](N)C(=O)O; αMeD = C[C@](N)(CC(=O)O)C(=O)O; αMeS = C[C@](N)(CO)C(=O)O; AEEA = NCCOCCOCC(=O)O; Aib = CC(C)(N)C(=O)O

B1: TP659 (peptide)
peptide: HXQGTFTSDXSKYLDXRAAQDFVQWLLAX
modifications: D-Ser (s) at 2; pAF(PEG2PEG2γEC16OH) at 10; Aib (U) at 16; KγE at 30-31 (γ-glutamic acid after Lys 30); C-terminal amide
B2: TP658 (peptide)
peptide: H[Aib]QGTFTSD[Phe(4-CH2NH2)]([AEEA-AEEA-γGlu-C16 diacid])SKYLD[Aib]RAAQDFVQWL[Met(O2)]ATK-{γGlu-NH2}
B3: TP663 (peptide)
peptide: H[Aib]QGTFTSDYSKYLD[Aib]RAA[Phe(4-CH2NH2)]([AEEA-AEEA-γGlu-C16 diacid])DFVQWLLATK-{γGlu-NH2}
B4: TP581 (peptide)
peptide: H[Aib]QGTFTSD[Phe(4-CH2NH2)]([AEEA-AEEA-γGlu-C20‑OH])SKYLD[Aib]RAAQDFVQWLLATK-{γGlu-NH2}
B5: TP660 (peptide)
peptide: H[αMeS]QGTFTSD[Phe(4-CH2NH2)]([AEEA-AEEA-γGlu-C16 diacid])SKYLD[Aib]RAAQDFVQWLLATK-{γGlu-NH2}
B6: TP634 (peptide)
peptide: H[Aib]QGTFTSDYSKYLDARAAQ[Phe(4-CH2NH2)]([AEEA-AEEA-γGlu-C18 diacid])FVQWL[Met(O2)][αMeD]T-NH2
modifications: N-terminus assumed
SMILES: CC(C)C[C@H](NC(=O)[C@H](Cc1ccc(O)cc1)NC(=O)[C@H](CCCCN)NC(=O)[C@H](CO)NC(=O)[C@H](Cc1ccc(O)cc1)NC(=O)[C@H](CC(=O)O)NC(=O)[C@H](CO)NC(=O)[C@@H](NC(=O)[C@H](Cc1ccccc1)NC(=O)[C@@H](NC(=O)CNC(=O)[C@H](CCC(N)=O)NC(=O)C(C)(C)NC(=O)[C@@H](N)Cc1c[nH]cn1)[C@@H](C)O)[C@@H](C)O)C(=O)N[C@@H](CC(=O)O)C(=O)N[C@@H](C)C(=O)N[C@@H](CCCNC(=N)N)C(=O)N[C@@H](C)C(=O)N[C@@H](C)C(=O)N[C@@H](CCC(N)=O)C(=O)N[C@@H](Cc1ccc(CNC(=O)COCCOCCNC(=O)COCCOCCNC(=O)CC[C@H](NC(=O)CCCCCCCCCCCCCCCCC(=O)O)C(=O)O)cc1)C(=O)N[C@@H](Cc1ccccc1)C(=O)N[C@H](C(=O)N[C@@H](CCC(N)=O)C(=O)N[C@@H](Cc1c[nH]c2ccccc12)C(=O)N[C@@H](CC(C)C)C(=O)N[C@@H](CCS(C)(=O)=O)C(=O)N[C@@](C)(CC(=O)O)C(=O)N[C@H](C(N)=O)[C@@H](C)O)C(C)C
B7: TP636 (peptide)
peptide: H[Aib]QGTFTSDYSKYLDARAA[Phe(4-CH2NH2)]([AEEA-AEEA-γGlu-C18 diacid])DFVQWL[Met(O2)][αMeD]T-NH2
modifications: N-terminus assumed
SMILES: CC(C)C[C@H](NC(=O)[C@H](Cc1ccc(O)cc1)NC(=O)[C@H](CCCCN)NC(=O)[C@H](CO)NC(=O)[C@H](Cc1ccc(O)cc1)NC(=O)[C@H](CC(=O)O)NC(=O)[C@H](CO)NC(=O)[C@@H](NC(=O)[C@H](Cc1ccccc1)NC(=O)[C@@H](NC(=O)CNC(=O)[C@H](CCC(N)=O)NC(=O)C(C)(C)NC(=O)[C@@H](N)Cc1c[nH]cn1)[C@@H](C)O)[C@@H](C)O)C(=O)N[C@@H](CC(=O)O)C(=O)N[C@@H](C)C(=O)N[C@@H](CCCNC(=N)N)C(=O)N[C@@H](C)C(=O)N[C@@H](C)C(=O)N[C@@H](Cc1ccc(CNC(=O)COCCOCCNC(=O)COCCOCCNC(=O)CC[C@H](NC(=O)CCCCCCCCCCCCCCCCC(=O)O)C(=O)O)cc1)C(=O)N[C@@H](CC(=O)O)C(=O)N[C@@H](Cc1ccccc1)C(=O)N[C@H](C(=O)N[C@@H](CCC(N)=O)C(=O)N[C@@H](Cc1c[nH]c2ccccc12)C(=O)N[C@@H](CC(C)C)C(=O)N[C@@H](CCS(C)(=O)=O)C(=O)N[C@@](C)(CC(=O)O)C(=O)N[C@H](C(N)=O)[C@@H](C)O)C(C)C
B8: TP637 (peptide)
peptide: H[Aib]QGTFTSDYSKYLDARAAQDFVK([AEEA-γGlu-C18 diacid])WL[Met(O2)]DT-NH2
modifications: N-terminus assumed
SMILES: CC(C)C[C@H](NC(=O)[C@H](Cc1ccc(O)cc1)NC(=O)[C@H](CCCCN)NC(=O)[C@H](CO)NC(=O)[C@H](Cc1ccc(O)cc1)NC(=O)[C@H](CC(=O)O)NC(=O)[C@H](CO)NC(=O)[C@@H](NC(=O)[C@H](Cc1ccccc1)NC(=O)[C@@H](NC(=O)CNC(=O)[C@H](CCC(N)=O)NC(=O)C(C)(C)NC(=O)[C@@H](N)Cc1c[nH]cn1)[C@@H](C)O)[C@@H](C)O)C(=O)N[C@@H](CC(=O)O)C(=O)N[C@@H](C)C(=O)N[C@@H](CCCNC(=N)N)C(=O)N[C@@H](C)C(=O)N[C@@H](C)C(=O)N[C@@H](CCC(N)=O)C(=O)N[C@@H](CC(=O)O)C(=O)N[C@@H](Cc1ccccc1)C(=O)N[C@H](C(=O)N[C@@H](CCCCNC(=O)COCCOCCNC(=O)CC[C@H](NC(=O)CCCCCCCCCCCCCCCCC(=O)O)C(=O)O)C(=O)N[C@@H](Cc1c[nH]c2ccccc12)C(=O)N[C@@H](CC(C)C)C(=O)N[C@@H](CCS(C)(=O)=O)C(=O)N[C@@H](CC(=O)O)C(=O)N[C@H](C(N)=O)[C@@H](C)O)C(C)C
B9: TP662 (peptide)
peptide: H[Aib]QGTFTSDYSKYLD[Aib]RAAK([AEEA-AEEA-γGlu-C16 diacid])DFVQWLLATK-{γGlu-NH2}
B10: TP638 (peptide)
peptide: H[Aib]QGTFTSDYSKYLDARAAQDFV[Phe(4-CH2NH2)]([AEEA-γGlu-C18 diacid])WLLDT-NH2
modifications: N-terminus assumed
SMILES: CC(C)C[C@H](NC(=O)[C@H](Cc1ccc(O)cc1)NC(=O)[C@H](CCCCN)NC(=O)[C@H](CO)NC(=O)[C@H](Cc1ccc(O)cc1)NC(=O)[C@H](CC(=O)O)NC(=O)[C@H](CO)NC(=O)[C@@H](NC(=O)[C@H](Cc1ccccc1)NC(=O)[C@@H](NC(=O)CNC(=O)[C@H](CCC(N)=O)NC(=O)C(C)(C)NC(=O)[C@@H](N)Cc1c[nH]cn1)[C@@H](C)O)[C@@H](C)O)C(=O)N[C@@H](CC(=O)O)C(=O)N[C@@H](C)C(=O)N[C@@H](CCCNC(=N)N)C(=O)N[C@@H](C)C(=O)N[C@@H](C)C(=O)N[C@@H](CCC(N)=O)C(=O)N[C@@H](CC(=O)O)C(=O)N[C@@H](Cc1ccccc1)C(=O)N[C@H](C(=O)N[C@@H](Cc1ccc(CNC(=O)COCCOCCNC(=O)CC[C@H](NC(=O)CCCCCCCCCCCCCCCCC(=O)O)C(=O)O)cc1)C(=O)N[C@@H](Cc1c[nH]c2ccccc12)C(=O)N[C@@H](CC(C)C)C(=O)N[C@@H](CC(C)C)C(=O)N[C@@H](CC(=O)O)C(=O)N[C@H](C(N)=O)[C@@H](C)O)C(C)C
B11: TP635 (peptide)
peptide: H[Aib]QGTFTSDYSKYLDARAA[Phe(4-CH2NH2)]([AEEA-γGlu-C18 diacid])DFVQWLLDT-NH2
modifications: N-terminus assumed
SMILES: CC(C)C[C@H](NC(=O)[C@H](Cc1ccc(O)cc1)NC(=O)[C@H](CCCCN)NC(=O)[C@H](CO)NC(=O)[C@H](Cc1ccc(O)cc1)NC(=O)[C@H](CC(=O)O)NC(=O)[C@H](CO)NC(=O)[C@@H](NC(=O)[C@H](Cc1ccccc1)NC(=O)[C@@H](NC(=O)CNC(=O)[C@H](CCC(N)=O)NC(=O)C(C)(C)NC(=O)[C@@H](N)Cc1c[nH]cn1)[C@@H](C)O)[C@@H](C)O)C(=O)N[C@@H](CC(=O)O)C(=O)N[C@@H](C)C(=O)N[C@@H](CCCNC(=N)N)C(=O)N[C@@H](C)C(=O)N[C@@H](C)C(=O)N[C@@H](Cc1ccc(CNC(=O)COCCOCCNC(=O)CC[C@H](NC(=O)CCCCCCCCCCCCCCCCC(=O)O)C(=O)O)cc1)C(=O)N[C@@H](CC(=O)O)C(=O)N[C@@H](Cc1ccccc1)C(=O)N[C@H](C(=O)N[C@@H](CCC(N)=O)C(=O)N[C@@H](Cc1c[nH]c2ccccc12)C(=O)N[C@@H](CC(C)C)C(=O)N[C@@H](CC(C)C)C(=O)N[C@@H](CC(=O)O)C(=O)N[C@H](C(N)=O)[C@@H](C)O)C(C)C
B12: TP580 (peptide)
peptide: H[Aib]QGTFTSD[Phe(4-CH2NH2)]([AEEA-AEEA-γGlu-C20‑OH])SKYLDARAAQDFVQWL[Met(O2)]DT-NH2
B13: TP639 (peptide)
peptide: H[Aib]QGTFTSDYSKYLDARAAQDFV[Phe(4-CH2NH2)]([γGlu-C18 diacid])WLLDT-NH2
modifications: N-terminus assumed
SMILES: CC(C)C[C@H](NC(=O)[C@H](Cc1ccc(O)cc1)NC(=O)[C@H](CCCCN)NC(=O)[C@H](CO)NC(=O)[C@H](Cc1ccc(O)cc1)NC(=O)[C@H](CC(=O)O)NC(=O)[C@H](CO)NC(=O)[C@@H](NC(=O)[C@H](Cc1ccccc1)NC(=O)[C@@H](NC(=O)CNC(=O)[C@H](CCC(N)=O)NC(=O)C(C)(C)NC(=O)[C@@H](N)Cc1c[nH]cn1)[C@@H](C)O)[C@@H](C)O)C(=O)N[C@@H](CC(=O)O)C(=O)N[C@@H](C)C(=O)N[C@@H](CCCNC(=N)N)C(=O)N[C@@H](C)C(=O)N[C@@H](C)C(=O)N[C@@H](CCC(N)=O)C(=O)N[C@@H](CC(=O)O)C(=O)N[C@@H](Cc1ccccc1)C(=O)N[C@H](C(=O)N[C@@H](Cc1ccc(CNC(=O)CC[C@H](NC(=O)CCCCCCCCCCCCCCCCC(=O)O)C(=O)O)cc1)C(=O)N[C@@H](Cc1c[nH]c2ccccc12)C(=O)N[C@@H](CC(C)C)C(=O)N[C@@H](CC(C)C)C(=O)N[C@@H](CC(=O)O)C(=O)N[C@H](C(N)=O)[C@@H](C)O)C(C)C
B14: TP657 (peptide)
peptide: H[Aib]QGTFTSD[Phe(4-CH2NH2)]([AEEA-AEEA-γGlu-C16 diacid])SKYLD[Aib]RAAQDFVQWLL[αMeD]TK-{γGlu-NH2}

Key:
[1] = molecular target: human Glucagon receptor (GCGR) (human, UniProt P47871 26-477); experiment: cell-based or functional assay
[2] = molecular target: human GLP-1 receptor (GLP1R) (human, UniProt P43220 24-463); experiment: cell-based or functional assay

Chain of human Glucagon receptor (GCGR) (P47871 26-477): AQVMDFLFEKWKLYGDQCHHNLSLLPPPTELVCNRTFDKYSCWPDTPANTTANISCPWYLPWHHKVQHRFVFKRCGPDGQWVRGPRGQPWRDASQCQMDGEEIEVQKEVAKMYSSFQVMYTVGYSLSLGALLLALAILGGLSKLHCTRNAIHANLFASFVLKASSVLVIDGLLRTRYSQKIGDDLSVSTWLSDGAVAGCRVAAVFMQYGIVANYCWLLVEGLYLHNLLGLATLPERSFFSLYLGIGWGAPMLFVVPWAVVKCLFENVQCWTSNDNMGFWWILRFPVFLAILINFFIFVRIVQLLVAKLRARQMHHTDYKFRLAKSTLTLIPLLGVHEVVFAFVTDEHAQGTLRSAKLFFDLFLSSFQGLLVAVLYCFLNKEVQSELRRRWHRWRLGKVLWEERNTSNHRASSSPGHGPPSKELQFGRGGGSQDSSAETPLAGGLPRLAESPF

Binder	GCGR EC50 human [1] [nM]	GLP1R EC50 human [2] [nM]
B1	0.46	> 4.9
B2	3.2	1.66
B3	0.22	0.38
B4	4.95	1.69
B5	4.54	3.59
B6	0.77	0.49
B7	0.11	0.52
B8	0.94	0.53
B9	1.45	0.52
B10	5.05	1.55
B11	0.46	2.13
B12	1.09	0.46
B13	3.38	2.09
B14	0.14	2.18
